Measured values taken from paper PMC4835091, “Characterization of the FtsZ C-Terminal Variable (CTV) Region in Z-Ring Assembly and Interaction with the Z-Ring Stabilizer ZapD in E. coli Cytokinesis” (PLoS ONE, 2016).

Key:
Assay in all cases: co-sedimentation; FtsZ or CTV mutant 5 μM with ZapD 1 or 5 μM in 50 mM K-MOPS pH 6.5, 50 mM KCl, 2.5 mM MgCl2, 3 μM BSA, 1 mM GTP, room temperature; TLA100.2, 80,000 rpm, 10 min; ZapD in the pellet by SDS-PAGE
Conditions in all cases: both partners purified
FtsZ(QQQQ) (purified) = molecular target: T1, FtsZ(QQQQ) (purified) (E. coli, UniProt P0A9A6 1-383, CTV KQAD replaced by QQQQ)
T1 construct: FtsZ of E. coli with the native CTV KQAD replaced by QQQQ (net-neutral); pLT1, pET-21b(+); also called net-neutral CTV mutant; source: E. coli C41(DE3), purified (25% saturated ammonium sulfate cut)
T1 sequence (looked up): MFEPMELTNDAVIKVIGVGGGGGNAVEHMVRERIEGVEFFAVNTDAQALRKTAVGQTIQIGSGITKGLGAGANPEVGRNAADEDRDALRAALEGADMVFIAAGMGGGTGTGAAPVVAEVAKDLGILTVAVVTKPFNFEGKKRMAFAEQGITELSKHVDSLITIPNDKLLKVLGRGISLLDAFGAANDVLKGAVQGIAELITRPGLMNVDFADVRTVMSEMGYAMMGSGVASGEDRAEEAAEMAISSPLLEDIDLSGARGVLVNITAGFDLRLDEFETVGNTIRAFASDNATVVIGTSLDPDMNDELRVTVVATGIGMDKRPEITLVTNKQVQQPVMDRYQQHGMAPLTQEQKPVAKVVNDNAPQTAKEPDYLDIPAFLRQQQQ

FtsZ(DQAK) (purified) = molecular target: T2, FtsZ(DQAK) (purified) (E. coli, UniProt P0A9A6 1-383, CTV KQAD replaced by DQAK)
T2 construct: FtsZ of E. coli with the native CTV KQAD replaced by DQAK (net-neutral); pKHH9, pET-21b(+); also called net-neutral CTV mutant; source: E. coli C41(DE3), purified (25% saturated ammonium sulfate cut)
T2 sequence (looked up): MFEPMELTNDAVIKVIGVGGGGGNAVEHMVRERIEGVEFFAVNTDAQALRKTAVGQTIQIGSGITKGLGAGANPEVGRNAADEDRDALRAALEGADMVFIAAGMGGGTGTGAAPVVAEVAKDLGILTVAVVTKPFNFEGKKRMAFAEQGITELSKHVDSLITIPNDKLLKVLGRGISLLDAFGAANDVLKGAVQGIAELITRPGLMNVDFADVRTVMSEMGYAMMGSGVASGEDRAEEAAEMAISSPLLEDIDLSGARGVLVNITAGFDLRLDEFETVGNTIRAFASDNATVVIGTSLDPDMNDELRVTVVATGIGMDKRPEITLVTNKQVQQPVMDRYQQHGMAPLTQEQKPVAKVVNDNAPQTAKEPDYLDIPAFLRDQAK

FtsZ(RQAR) (purified) = molecular target: T3, FtsZ(RQAR) (purified) (E. coli, UniProt P0A9A6 1-383, CTV KQAD replaced by RQAR)
T3 construct: FtsZ of E. coli with the native CTV KQAD replaced by RQAR (net-positive); pAM3, pET-21b(+); also called net-positive CTV mutant; source: E. coli C41(DE3), purified (25% saturated ammonium sulfate cut)
T3 sequence (looked up): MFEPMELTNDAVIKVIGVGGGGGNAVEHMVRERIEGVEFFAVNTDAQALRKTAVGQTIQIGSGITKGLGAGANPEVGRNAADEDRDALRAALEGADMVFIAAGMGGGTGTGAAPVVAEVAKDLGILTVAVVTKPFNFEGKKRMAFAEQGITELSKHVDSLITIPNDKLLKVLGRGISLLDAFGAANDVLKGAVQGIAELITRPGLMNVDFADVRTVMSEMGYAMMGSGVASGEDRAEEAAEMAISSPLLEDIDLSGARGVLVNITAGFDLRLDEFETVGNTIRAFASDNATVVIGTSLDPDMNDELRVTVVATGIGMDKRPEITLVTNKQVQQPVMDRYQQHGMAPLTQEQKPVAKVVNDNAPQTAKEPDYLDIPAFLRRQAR

FtsZ(KQAK) (purified) = molecular target: T4, FtsZ(KQAK) (purified) (E. coli, UniProt P0A9A6 1-383, CTV KQAD replaced by KQAK)
T4 construct: FtsZ of E. coli with the native CTV KQAD replaced by KQAK (net-positive); pKHH8, pET-21b(+); also called net-positive CTV mutant; source: E. coli C41(DE3), purified (25% saturated ammonium sulfate cut)
T4 sequence (looked up): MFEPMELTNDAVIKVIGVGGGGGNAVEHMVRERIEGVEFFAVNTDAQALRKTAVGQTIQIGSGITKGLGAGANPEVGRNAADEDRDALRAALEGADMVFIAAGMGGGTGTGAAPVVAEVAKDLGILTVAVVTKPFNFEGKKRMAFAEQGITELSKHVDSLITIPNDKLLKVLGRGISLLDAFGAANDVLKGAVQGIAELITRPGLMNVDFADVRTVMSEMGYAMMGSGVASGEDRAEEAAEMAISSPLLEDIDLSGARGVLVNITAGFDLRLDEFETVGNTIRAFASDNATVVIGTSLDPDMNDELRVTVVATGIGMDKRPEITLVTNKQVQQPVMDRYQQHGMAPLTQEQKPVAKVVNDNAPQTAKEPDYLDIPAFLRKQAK

Measured: binding result

B1: ZapD (purified) (natural protein, E. coli, UniProt P36680 1-247, looked up)
chain: MQTQVLFEHPLNEKMRTWLRIEFLIQQLTVNLPIVDHAGALHFFRNVSELLDVFERGEVRTELLKELDRQQRKLQTWIGVPGVDQSRIEALIQQLKAAGSVLISAPRIGQFLREDRLIALVRQRLSIPGGCCSFDLPTLHIWLHLPQAQRDSQVETWIASLNPLTQALTMVLDLIRQSAPFRKQTSLNGFYQDNGGDADLLRLNLSLDSQLYPQISGHKSRFAIRFMPLDTENGQVPERLDFELACC
notes: ZapD, Z-ring stabilizer of E. coli; also called purified ZapD; pET28b-His10-Smt3-ZapD
binds: all assays above
